Results published in publication PMC11261779, “Structural studies of WDR5 in complex with MBD3C WIN motif reveal a unique binding mode” (The Journal of Biological Chemistry, 2024).

What follows are binders tested against WDR5 (residues 24-334) D107S (mouse, UniProt P61965 24-334, D107S) (assay: ITC; peptide (0.5 to 1.0 mM) titrated into WDR5 protein (44.5 μM) in the cell; 20 °C; Buffer D (20 mM Tris-HCl, 200 mM NaCl, pH 7.5); single binding site model). Conditions: both partners purified.

Binder | Kd [nM] | dH [kcal/mol] | stoichiometry N
GAARCRVFSPQG (numbers count on: isoform MBD3C; also called MBD3C peptide; MBD3C WIN motif; source: synthetic peptide (GenScript)) [MBD3C_(40-51) peptide (methyl-CpG binding domain 3 isoform C, WIN motif)] | 10800 ± 1030 | -5.4 ± 0.17 | 1.34

What follows are binders tested against WD repeat-containing protein 5 (WDR5), truncated construct, residues 24-334 (mouse, UniProt P61965 24-334) in the same assay as above. Conditions: both partners purified.

Binder | Kd [nM] | dH [kcal/mol] | stoichiometry N
GAARCRVFSPQG (numbers count on: isoform MBD3C; also called MBD3C peptide; MBD3C WIN motif; source: synthetic peptide (GenScript)) [MBD3C_(40-51) peptide (methyl-CpG binding domain 3 isoform C, WIN motif)] | 130 ± 20 | -11.4 ± 0.13 | 1.06
GAARCRVASPQG (numbers count on: isoform MBD3C; also called MBD3C^F47A; source: synthetic peptide (GenScript)) [MBD3C_(40-51) (F47A) peptide] | 650 ± 30 | -7.32 ± 0.05 | 1.34
GAARCRVHSPQG (numbers count on: isoform MBD3C; also called MBD3C^F47H; source: synthetic peptide (GenScript)) [MBD3C_(40-51) (F47H) peptide] | 1010 ± 40 | -7.8 ± 0.04 | 0.99
GAAKCRVFSPQG (numbers count on: isoform MBD3C; also called MBD3C^R43K; source: synthetic peptide (GenScript)) [MBD3C_(40-51) (R43K) peptide] | 1310 ± 210 | -15 ± 0.52 | 1.17
GAARCEVFSPQG (numbers count on: isoform MBD3C; also called MBD3C^R45E; source: synthetic peptide (GenScript)) [MBD3C_(40-51) (R45E) peptide] | 670 ± 60 | -7.49 ± 0.08 | 1.25
